Source: publication PMC8625570 (2021)

Experiments:
Assay in all cases: mGppNHp-bound
RAC3 (aa 1-192) [1] = target: T1, RAC3 (aa 1-192) (human, UniProt P60763 1-192)
RHOG (aa 1-178) [2] = target: T2, RHOG (aa 1-178) (human, UniProt P84095 1-178)
CDC42 (aa 1-178) [3] = target: T3, CDC42 (aa 1-178) (human, UniProt P60953 1-178)
RAC1 (aa 1-179) [4] = target: T4, RAC1 (aa 1-179) (human, UniProt P63000 1-179)
[5] = target: T5, CDC42 M45E/N52E (so in the source); residue 52 of CDC42 is given as T52 in the discussion) (human, UniProt P60953 1-178, M45E | N52E (T52 in CDC42))
CDC42 V85D/S88D [6] = target: T6, CDC42 V85D/S88D (human, UniProt P60953 1-178, V85D | S88D)
RAC1 M45E/N52E [7] = target: T7, RAC1 M45E/N52E (human, UniProt P63000 1-179, M45E | N52E)
CDC42 T25K/N26D [8] = target: T8, CDC42 T25K/N26D (human, UniProt P60953 1-178, T25K | N26D)
[9] = target: T9, RAC1 V85D/S88D (so in the source); residue 88 of RAC1 is Ala by the legend of Figure 2) (human, UniProt P63000 1-179, V85D | S88D (Ala-88 in RAC1))
RAC1 T25K/N26D [10] = target: T10, RAC1 T25K/N26D (human, UniProt P63000 1-179, T25K | N26D)
RAC1 Q74D [11] = target: T11, RAC1 Q74D (human, UniProt P63000 1-179, Q74D)
CDC42 Q74D [12] = target: T12, CDC42 Q74D (human, UniProt P60953 1-178, Q74D)
[13] = target: T13, RHOA-to-RAC1 variant (RHOA K27T, D28N, E47M, E54N, D76Q) (human, UniProt P61586 1-181, K27T | D28N | E47M | E54N | D76Q)
[14] = target: T5, CDC42 M45E/N52E (so in the source); residue 52 …; remark: listed apart in the source
CDC42 V85D/S88D [15] = target: T6, CDC42 V85D/S88D; remark: listed apart in the source
RAC1 M45E/N52E [16] = target: T7, RAC1 M45E/N52E; remark: listed apart in the source
CDC42 T25K/N26D [17] = target: T8, CDC42 T25K/N26D; remark: listed apart in the source
[18] = target: T9, RAC1 V85D/S88D (so in the source); residue 88 …; remark: listed apart in the source
RAC1 T25K/N26D [19] = target: T10, RAC1 T25K/N26D; remark: listed apart in the source
RAC1 Q74D [20] = target: T11, RAC1 Q74D; remark: listed apart in the source
CDC42 Q74D [21] = target: T12, CDC42 Q74D; remark: listed apart in the source
[22] = target: T13, RHOA-to-RAC1 variant (RHOA K27T, D28N, …); remark: listed apart in the source
RAC3 (aa 1-192) [23] = target: T1, RAC3 (aa 1-192); remark: listed apart in the source
RHOG (aa 1-178) [24] = target: T2, RHOG (aa 1-178); remark: listed apart in the source
RAC2 (aa 1-192) = RAC2 (aa 1-192) (human, UniProt P15153 1-192)
CDC42 (aa 1-178) [25] = target: T3, CDC42 (aa 1-178); remark: listed apart in the source
RAC1 (aa 1-179) [26] = target: T4, RAC1 (aa 1-179); remark: listed apart in the source

T8 sequence (P60953 1-178 T25K/N26D): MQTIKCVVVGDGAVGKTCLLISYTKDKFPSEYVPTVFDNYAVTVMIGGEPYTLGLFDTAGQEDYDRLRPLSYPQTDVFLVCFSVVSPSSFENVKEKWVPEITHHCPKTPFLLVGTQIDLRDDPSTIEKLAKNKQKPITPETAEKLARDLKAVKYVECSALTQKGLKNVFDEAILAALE
T12 sequence (P60953 1-178 Q74D): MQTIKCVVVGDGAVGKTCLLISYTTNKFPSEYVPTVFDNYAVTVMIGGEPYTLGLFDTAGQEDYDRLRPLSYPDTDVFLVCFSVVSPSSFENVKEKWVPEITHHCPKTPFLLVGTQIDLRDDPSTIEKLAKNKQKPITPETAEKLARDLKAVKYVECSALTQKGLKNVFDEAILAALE
T5 sequence (P60953 other isoform, or with tags, fused parts or gaps M45E | N52E (T52 in CDC42) | M45E N52E): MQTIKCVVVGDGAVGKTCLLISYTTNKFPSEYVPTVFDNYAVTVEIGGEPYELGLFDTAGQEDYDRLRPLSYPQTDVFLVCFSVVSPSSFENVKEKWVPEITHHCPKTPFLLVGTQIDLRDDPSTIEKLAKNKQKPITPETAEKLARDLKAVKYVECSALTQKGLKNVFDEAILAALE
T6 sequence (P60953 1-178 V85D/S88D): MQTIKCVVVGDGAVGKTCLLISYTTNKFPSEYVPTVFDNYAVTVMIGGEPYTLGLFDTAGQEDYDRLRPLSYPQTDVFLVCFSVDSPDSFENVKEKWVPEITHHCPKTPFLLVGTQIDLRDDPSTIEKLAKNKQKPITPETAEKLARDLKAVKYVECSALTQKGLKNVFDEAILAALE
T3 sequence (P60953 1-178): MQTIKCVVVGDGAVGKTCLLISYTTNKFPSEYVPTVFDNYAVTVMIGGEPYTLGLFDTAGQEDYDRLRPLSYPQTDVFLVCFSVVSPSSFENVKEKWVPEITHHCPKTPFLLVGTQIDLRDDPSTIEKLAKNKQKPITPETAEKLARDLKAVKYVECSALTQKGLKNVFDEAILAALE
T13 sequence (P61586 1-181 K27T/D28N/E47M/E54N/D76Q): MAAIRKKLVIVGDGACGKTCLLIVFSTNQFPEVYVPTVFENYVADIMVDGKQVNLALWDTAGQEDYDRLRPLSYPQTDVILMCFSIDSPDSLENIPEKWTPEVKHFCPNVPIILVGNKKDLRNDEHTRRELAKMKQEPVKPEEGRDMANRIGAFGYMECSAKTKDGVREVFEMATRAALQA
T2 sequence (P84095 1-178): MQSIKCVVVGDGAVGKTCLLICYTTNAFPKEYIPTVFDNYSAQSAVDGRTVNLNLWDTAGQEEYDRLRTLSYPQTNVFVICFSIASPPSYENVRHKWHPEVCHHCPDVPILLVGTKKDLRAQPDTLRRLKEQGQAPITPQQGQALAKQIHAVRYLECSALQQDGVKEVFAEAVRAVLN

B1: IQGAP1^C794 (C-terminal half of human IQGAP1 with the GRD, RGCT and CT domains) (domain or fragment)
chain: DPPMVVVRKFVHLLDQSDQDFQEELDLMKMREEVITLIRSNQQLENDLNLMDIKIGLLVKNKITLQDVVSHSKKLTKKNKEQLSDMMMINKQKGGLKALSKEKREKLEAYQHLFYLLQTNPTYLAKLIFQMPQNKSTKFMDSVIFTLYNYASNQREEYLLLRLFKTALQEEIKSKVDQIQEIVTGNPTVIKMVVSFNRGARGQNALRQILAPVVKEIMDDKSLNIKTDPVDIYKSWVNQMESQTGEASKLPYDVTPEQALAHEEVKTRLDSSIRNMRAVTDKFLSAIVSSVDKIPYGMRFIAKVLKDSLHEKFPDAGEDELLKIIGNLLYYRYMNPAIVAPDAFDIIDLSAGGQLTTDQRRNLGSIAKMLQHAASNKMFLGDNAHLSIINEYLSQSYQKFRRFFQTACDVPELQDKFNVDEYSDLVTLTKPVIYISIGEIINTHTLLLDHQDAIAPEHNDPIHELLDDLGEVPTIESLIGESSGNLNDPNKEALAKTEVSLTLTNKFDVPGDENAEMDARTILLNTKRLIVDVIRFQPGETLTEILETPATSEQEAEHQRAMQRRAIRDAKTPDKMKKSKSVKEDSNLTLQEKKEKIQTGLKKLTELGTVDPKNKYQELINDIARDIRNQRRYRQRRKAELVKLQQTYAALNSKATFYGEQVDYYKSYIKTCLDNLASKGKVSKKPREMKGKKSKKISLKYTAARLHEKGVLLEIEDLQVNQFKNVIFEISPTEEVGDFEVKAKFMGVQMETFMLHYQDLLQLQYEGVAVMKLFDRAKVNVNLLIFLLNKKFYGK
A Kd (RAC3 (aa 1-192) [1]) of 450 nM, a Kd (RHOG (aa 1-178) [2]) of 490 nM and a Kd (CDC42 (aa 1-178) [3]) of 290 nM were found for B1 in this work. The Kd (RAC1 (aa 1-179) [4]) was 930 nM, the koff [5] was 0.95 s⁻¹ and the koff (CDC42 V85D/S88D [6]) was 0.88 s⁻¹. The koff (RAC1 M45E/N52E [7]) was 1.4 s⁻¹, the koff (CDC42 T25K/N26D [8]) was 0.48 s⁻¹ and the koff [9] was 2.84 s⁻¹. The koff (RAC1 T25K/N26D [10]) was 2.01 s⁻¹, the koff (RAC1 Q74D [11]) was 0.74 s⁻¹ and the koff (CDC42 Q74D [12]) was 1.19 s⁻¹. It also gave a koff [13] of 2.1 s⁻¹, a Kd [14] of 1230 nM and a Kd (CDC42 V85D/S88D [15]) of 1200 nM. It also gave a Kd (RAC1 M45E/N52E [16]) of 8200 nM, a Kd (CDC42 T25K/N26D [17]) of 920 nM and a Kd [18] of 10500 nM. For the same binder, the Kd (RAC1 T25K/N26D [19]) was 15300 nM, the Kd (RAC1 Q74D [20]) was 6100 nM and the Kd (CDC42 Q74D [21]) was 1320 nM. For the same binder, the Kd [22] was 1750 nM, the koff (RAC3 (aa 1-192) [23]) was 0.69 s⁻¹ and the koff (RHOG (aa 1-178) [24]) was 0.56 s⁻¹. For the same binder, the koff (RAC2 (aa 1-192)) was 0.08 s⁻¹, the koff (CDC42 (aa 1-178) [25]) was 0.39 s⁻¹ and the koff (RAC1 (aa 1-179) [26]) was 0.65 s⁻¹.
